Where a chain is given by its changes, count along the chain named. Names and notes keep the numbering of the source. Square brackets hold non-standard residues; d marks the D form. Ends that are not written are not given here. pT = C[C@@H](OP(=O)(O)O)[C@H](N)C(=O)O; pS = N[C@@H](COP(=O)(O)O)C(=O)O
T1: At14-3-3 λ^N233A (Arabidopsis thaliana, UniProt P48349 1-248, N233A)
T1 construct: 14-3-3 lambda (GRF6), Arabidopsis thaliana, with N233A; also called 14-3-3λ Asn233→ Ala mutant; source: E. coli BL21 (DE3) RIL, purified using the same protocol as the wild type; not shown: thioredoxin A, N-terminal, cleaved; 8xHis, N-terminal, cleaved; StrepII, N-terminal, cleaved
T1 sequence (looked up): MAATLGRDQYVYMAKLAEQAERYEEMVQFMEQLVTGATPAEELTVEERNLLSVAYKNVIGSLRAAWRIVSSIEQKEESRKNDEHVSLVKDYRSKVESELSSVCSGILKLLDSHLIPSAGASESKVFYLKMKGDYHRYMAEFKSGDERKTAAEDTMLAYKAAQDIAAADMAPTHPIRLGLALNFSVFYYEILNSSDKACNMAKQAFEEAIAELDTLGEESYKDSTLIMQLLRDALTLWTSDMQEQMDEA

T2: Arabidopsis 14-3-3 isoform kappa (At14-3-3-κ^1−248) (Arabidopsis thaliana, UniProt P48348 1-248)
T2 construct: 14-3-3 kappa (GRF8), Arabidopsis thaliana, full length, residues 1-248; The ITC text names 14-3-3κ without limits; a truncated 1-240 construct was also cloned; not shown: thioredoxin A, N-terminal, cleaved; 8xHis, N-terminal, cleaved; StrepII, N-terminal, cleaved
T2 sequence (looked up): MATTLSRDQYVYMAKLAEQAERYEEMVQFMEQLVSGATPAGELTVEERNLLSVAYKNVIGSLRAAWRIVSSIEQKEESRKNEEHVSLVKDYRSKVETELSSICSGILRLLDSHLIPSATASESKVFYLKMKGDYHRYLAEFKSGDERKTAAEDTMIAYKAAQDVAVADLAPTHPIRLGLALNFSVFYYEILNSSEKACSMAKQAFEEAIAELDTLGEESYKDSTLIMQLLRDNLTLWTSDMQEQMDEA

B1: pBKI1^265−272 peptide (peptide)
peptide: RGELF[pS]AP
notes: also called RGELFpSAP; source: synthetic peptide (Peptide Specialty Laboratories)
B2: C-terminal truncated At14-3-3-ω^1−237 (domain or fragment, Arabidopsis thaliana, UniProt Q01525 1-237, looked up)
chain: MASGREEFVYMAKLAEQAERYEEMVEFMEKVSAAVDGDELTVEERNLLSVAYKNVIGARRASWRIISSIEQKEESRGNDDHVTAIREYRSKIETELSGICDGILKLLDSRLIPAAASGDSKVFYLKMKGDYHRYLAEFKTGQERKDAAEHTLAAYKSAQDIANAELAPTHPIRLGLALNFSVFYYEILNSPDRACNLAKQAFDEAIAELDTLGEESYKDSTLIMQLLRDNLTLWTSD
notes: 14-3-3 omega (GRF2), Arabidopsis thaliana, residues 1-237; also called truncated 14-3-3 ω; not shown: thioredoxin A, N-terminal, cleaved; 8xHis, N-terminal, cleaved; StrepII, N-terminal, cleaved
B3: Arabidopsis 14-3-3 omega, full length (At14-3-3-ω^1−259) (natural protein, Arabidopsis thaliana, UniProt Q01525 1-259, looked up)
chain: MASGREEFVYMAKLAEQAERYEEMVEFMEKVSAAVDGDELTVEERNLLSVAYKNVIGARRASWRIISSIEQKEESRGNDDHVTAIREYRSKIETELSGICDGILKLLDSRLIPAAASGDSKVFYLKMKGDYHRYLAEFKTGQERKDAAEHTLAAYKSAQDIANAELAPTHPIRLGLALNFSVFYYEILNSPDRACNLAKQAFDEAIAELDTLGEESYKDSTLIMQLLRDNLTLWTSDMQDDAADEIKEAAAPKPTEEQQ
notes: 14-3-3 omega (GRF2), Arabidopsis thaliana, full length, residues 1-259; ITC and SEC-RALS name 14-3-3 ω without limits; not shown: thioredoxin A, N-terminal, cleaved; 8xHis, N-terminal, cleaved; StrepII, N-terminal, cleaved
B4: Arabidopsis 14-3-3 lambda (At14-3-3-λ^1−248) (natural protein, Arabidopsis thaliana, UniProt P48349 1-248, looked up)
chain: T1 sequence (looked up) with A233N
notes: 14-3-3 lambda (GRF6), Arabidopsis thaliana, full length, residues 1-248; The ITC text names 14-3-3λ without limits; a truncated 1-240 construct was also cloned; not shown: thioredoxin A, N-terminal, cleaved; 8xHis, N-terminal, cleaved; StrepII, N-terminal, cleaved
B5: 14-3-3 λ^R136L/Y137F (natural protein, Arabidopsis thaliana, UniProt P48349 1-248, looked up)
chain: T1 sequence (looked up) with R136L, Y137F, A233N
notes: 14-3-3 lambda (GRF6), Arabidopsis thaliana, with R136L and Y137F; also called 14-3-3λ Arg136→Leu/Tyr137→ Phe double mutant; source: E. coli BL21 (DE3) RIL, purified using the same protocol as the wild type; not shown: thioredoxin A, N-terminal, cleaved; 8xHis, N-terminal, cleaved; StrepII, N-terminal, cleaved
B6: pBRI1^869−874 peptide (peptide)
peptide: RKL[pT]FA
notes: BRI1, Arabidopsis thaliana, residues 869-874, N-lobe of the kinase domain; also called RKLpTFA; source: synthetic peptide (Peptide Specialty Laboratories)
B7: pBZR1^169−175 peptide (peptide)
peptide: RISN[pS]AP
notes: also called RISNpSAP; source: synthetic peptide (Peptide Specialty Laboratories)
B8: pBZR1^169−184 peptide (peptide)
peptide: RISN[pS]CPV[pT]PPVSSPT
notes: also called extended BZR1 linear motif; source: synthetic peptide (Peptide Specialty Laboratories)

Assays:
[1] = target: B2; test: crystal structure; co-crystallisation of 14-3-3 with 1-3 mM phosphopeptide; molecular replacement; settings: both partners purified
[2] = target: B4; test: ITC; Nano ITC, 25°C, 25 mM Hepes pH 7.0, 50 mM KCl; 600 μM peptide or phosphopeptide injected into 50 μM 14-3-3 protein in the cell, 25 injections; settings: both partners purified
[3] = target: B3; test: as above; settings: both partners purified
[4] = target: T1, At14-3-3 λ^N233A; test: as above; settings: both partners purified
[5] = target: the molecule itself; test: crystal structure; co-crystallisation of 14-3-3 with 1-3 mM phosphopeptide; molecular replacement
[6] = target: the molecule itself; test: SEC; analytical, Superdex 200 increase 10/300 GL, 25 mM Hepes pH 7.0, 50 mM KCl; 500 μl of protein at 2.0 mg/ml
[7] = target: B3; test: crystal structure; co-crystallisation of 14-3-3 with 1-3 mM phosphopeptide; molecular replacement; settings: both partners purified
[8] = target: T2, Arabidopsis 14-3-3 isoform kappa …; test: ITC; Nano ITC, 25°C, 25 mM Hepes pH 7.0, 50 mM KCl; 600 μM peptide or phosphopeptide injected into 50 μM 14-3-3 protein in the cell, 25 injections; settings: both partners purified

B1
binding result [1]: binds | binding result [2]: binds | binding result [3]: binds | binding result [4]: binds

B2
binding result [5]: binds

B3
binding result [5]: binds

B4
binding result [5]: binds

B5
stoichiometry N [6]: 2

B6
fold reduction of interaction by the N233A mutation [4]: ~2 fold

B7
binding result [1]: binds | binding result [2]: binds | fold reduction of interaction by the N233A mutation [4]: ~5 fold

B8
binding result [7]: binds | fold reduction of binding against the BZR1^169−175 motif [8]: ~10 fold | stoichiometry N [8]: ~1

Source: publication PMC11558545, “Mechanistic Insights into the Function of 14-3-3 Proteins as Negative Regulators of Brassinosteroid Signaling in Arabidopsis” (Plant and Cell Physiology, 2024)
